{"source": "paper PMC5758831", "about": "“A proline deletion in IFNAR1 impairs IFN-signaling and underlies increased resistance to tuberculosis in humans” (Nature Communications, 2018)", "key": {"[1]": {"biological_target": "T1, hIFNAR1-extracellular domain (ECD) (human, UniProt P17181 28-424)", "T1 construct": "interferon alpha and beta receptor subunit 1 (IFNAR1), human, extracellular domain, amino acids 28-424 of hIFNAR1 (GenBank CAA42992.1); The cloning paragraph says N-terminal 6xHis tag (modified pFastBac-1); the SPR paragraph says capture by C-terminal His-tags; The reverse primer encodes ...PGNTSK-stop; also called hIFNAR1-ECD; WT IFNAR1-ECD; not shown: 6xHis, N-terminal, kept", "T1 sequence (looked up)": "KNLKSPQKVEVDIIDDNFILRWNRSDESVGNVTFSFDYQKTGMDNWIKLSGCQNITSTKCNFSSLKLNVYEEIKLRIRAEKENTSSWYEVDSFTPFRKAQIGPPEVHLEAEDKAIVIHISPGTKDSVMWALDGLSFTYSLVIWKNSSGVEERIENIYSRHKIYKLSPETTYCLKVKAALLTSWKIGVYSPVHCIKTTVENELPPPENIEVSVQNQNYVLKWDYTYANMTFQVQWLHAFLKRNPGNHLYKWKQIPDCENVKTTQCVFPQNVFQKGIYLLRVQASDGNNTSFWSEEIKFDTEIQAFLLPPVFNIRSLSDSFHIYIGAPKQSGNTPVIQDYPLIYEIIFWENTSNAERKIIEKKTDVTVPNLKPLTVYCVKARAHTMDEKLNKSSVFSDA", "experiment": "SPR; ProteOn XPR36, HTG chip; His-tagged hIFNAR1-ECD or hIFNAR1-ECD-Del (25 µg/ml in TBS) immobilised on the nickel activated chip; ReBif (hIFN-β) in TBS as analyte at various concentrations; TBS running buffer; Langmuir binding model; in the absence of IFNAR2", "details": "both partners purified"}, "[2]": {"biological_target": "T2, hIFNAR1-ECD-Del (extracellular domain of human IFNAR1 with the Pro335 deletion) (human, UniProt P17181 28-424, delete P335)", "T2 construct": "Naturally occurring variant, made by site-directed mutagenesis of hIFNAR1-ECD; N-terminal 6xHis by the cloning paragraph, C-terminal His-tag by the SPR paragraph; also called IFNAR1Del; not shown: 6xHis, N-terminal, kept", "T2 sequence (looked up)": "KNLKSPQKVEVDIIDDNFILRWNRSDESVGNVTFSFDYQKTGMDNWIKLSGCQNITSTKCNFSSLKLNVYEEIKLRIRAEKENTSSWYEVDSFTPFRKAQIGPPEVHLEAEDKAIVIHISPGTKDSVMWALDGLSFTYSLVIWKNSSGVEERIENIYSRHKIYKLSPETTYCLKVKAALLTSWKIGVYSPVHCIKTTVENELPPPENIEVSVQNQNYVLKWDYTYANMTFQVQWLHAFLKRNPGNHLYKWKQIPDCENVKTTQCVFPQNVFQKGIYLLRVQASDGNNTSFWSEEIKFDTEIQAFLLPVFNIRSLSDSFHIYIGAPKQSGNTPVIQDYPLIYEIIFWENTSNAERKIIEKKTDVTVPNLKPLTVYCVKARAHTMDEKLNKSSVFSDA", "experiment": "SPR; ProteOn XPR36, HTG chip; His-tagged hIFNAR1-ECD or hIFNAR1-ECD-Del (25 µg/ml in TBS) immobilised on the nickel activated chip; ReBif (hIFN-β) in TBS as analyte at various concentrations; TBS running buffer; Langmuir binding model; in the absence of IFNAR2", "details": "both partners purified"}}}
{"binder": "human IFN-β (ReBif) (ligand, UniProt P01574 22-187, looked up, interferon beta, human; the drug product ReBif; also called hIFN-β; source: ReBif (hIFN-β), dialyzed into TBS) MSYNLLGFLQRSSNFQCQKLLWQLNGRLEYCLKDRMNFDIPEEIKQLQQFQKEDAALTIYEMLQNIFAIFRQDSSSTGWNETIVENLLANVYHQINHLKTVLEEKLEKEDFTRGKLMSSLHLKRYYGRILHYLKAKEYSHCAWTIVRVEILRNFYFINRLTGYLRN", "values": [{"measurement": "Kd", "setting": "[1]", "result": 15.8, "unit": "nM"}, {"measurement": "Kd", "setting": "[2]", "result": 28.1, "unit": "nM"}]}
